Measured values as given in patent US20040157268.

Biological target: β2 adrenergic receptor modified to have a Flag epitope at the amino terminus and a TEV protease site within the third intracellular loop between residues 254 and 260 of the native protein

B1: Tobacco Etch Virus (TEV) protease, recombinant (protein)
chain: GESLFKGPRDYNPISSTICHLTNESDGHTTSLYGIGFGPFIITNKHLFRRNNGTLLVQSLHGVFKVKNTTTLQQHLIDGRDMIIIRMPKDFPPFPQKLKFREPQREERICLVTTNFQTKSMSSMVSDTSCTFPSSDGIFWKHWIQTKDGQCGSPLVSTRDGFIVGIHSASNFTNTNNYFTSVPKNFMELLTNQEAQQWVSGWRLNADSVLWGGHKVFMSKPEEPFQPVKEATQLMNELVYSQ
  Ratio of TEV-cleaved to uncleaved receptor (axis 'cut/uncut'), from the blot of FIG. 11B: Two bars, no error bars and no printed values. The 'Control' bar ends just above the 0.3 tick. The 'Isoproterenol' bar ends between the 1.2 and 1.5 ticks, several times higher than the control.
  TEV cleavage of the receptor (Western blot; ratio of cleaved to uncleaved receptor), with and without the agonist isoproterenol: TEV cleavage of the 12 adrenergic receptor was enhanced in the presence of isoproterenol
  TEV cleavage of the receptor's third-loop TEV site, seen as the lower (cleaved, N-terminal) band on a Western blot probed with M1 antibody: No lower band without TEV (TEV-/ISO-). Very faint lower band with TEV alone (TEV+/ISO-). Strong lower band and a weaker upper band with TEV plus isoproterenol (TEV+/ISO+).
